The data set concerns the target KLF10 (TIEG1) (UniProt Q13118 Q13118:1-480). Briefly: EMSA; 100 ng protein, 5 fmol probe, 5 mM MgCl2, poly(dI-dC), 0.05% NP-40, room temperature; binding inhibited by compounds #48, #48-15, #15-09. The following applies: tags: GST fusion (GST-KLF10); Novus Biologicals; label: 3' biotin. The protocol:
The identified small molecule compounds were next examined for effects on KLF10 DNA-protein binding.
KLF10 recombinant protein was obtained from Novus Biologicals. […] End-labeled oligos (1 μmol/L) were annealed in a buffer system with 10 mM Tris, 50 mM NaCl, pH 8.0 by heating at 95° C. for 5 min, then slowly cooled to 65° C. for 30 min incubation, and cooled to room temperature. […] Compounds were incubated with KLF10 in a reaction system for 4 hrs at room temperature, and then Biotin-labeled probes were added for a 1 hr incubation.
For orientation: A gel shift assay detects complexes by their altered migration in electrophoresis.

KLF10 (TIEG1), sequence (Q13118 whole entry, the tested form may be a part, one chain of several): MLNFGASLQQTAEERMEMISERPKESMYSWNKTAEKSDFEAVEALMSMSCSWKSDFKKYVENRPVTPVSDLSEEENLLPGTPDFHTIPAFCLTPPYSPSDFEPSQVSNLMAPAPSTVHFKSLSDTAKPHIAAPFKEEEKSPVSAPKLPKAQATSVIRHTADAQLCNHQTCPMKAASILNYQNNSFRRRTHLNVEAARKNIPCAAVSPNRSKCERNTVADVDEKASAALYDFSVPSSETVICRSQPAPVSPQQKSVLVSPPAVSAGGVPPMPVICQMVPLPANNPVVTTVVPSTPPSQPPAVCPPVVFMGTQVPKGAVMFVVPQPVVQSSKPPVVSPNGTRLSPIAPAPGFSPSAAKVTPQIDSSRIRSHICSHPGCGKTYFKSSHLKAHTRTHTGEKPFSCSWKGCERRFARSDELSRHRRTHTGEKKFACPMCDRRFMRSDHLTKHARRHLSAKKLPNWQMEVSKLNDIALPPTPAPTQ

B1: KLF10 consensus DNA-binding sequence (dsDNA)
DNA 1: GCAGTGAAAAGGGGGTGTGTCAGGATGC
DNA 2: GCATCCTGACACACCCCCTTTTCACTGC
Regarding B1, the binding result was “binds”.

The record behind these values is US20170121318, “USE OF SMALL MOLECULE INHIBITORS TO KLF10 FOR MODULATION OF T REGULATORY CELLS AND CANCER IMMUNOTHERAPY” (THE BRIGHAM AND WOMEN'S HOSPITAL, INC., published 2017).
